Assay results: patent publication US20220153875A1, “ANTIGEN-BINDING MOLECULE CONTAINING ANTIGEN-BINDING DOMAIN OF WHICH BINDING ACTIVITY TO ANTIGEN IS CHANGED DEPENDING ON MTA, AND LIBRARY FOR OBTAINING SAID ANTIGEN-BINDING DOMAIN” (Chugai Seiyaku Kabushiki Kaisha, priority 2019, published 2022)
Substitutions are numbered along the chain they refer to. Numbers in names are those of the source.

Experiments:
[1] = Surface plasmon resonance: humanized MTA0303 and humanized MTA0330, binding to adenosine; conditions: humanized antibodies; 25° C.; read-out: Affinity KD, Adenosine
Description: (§1) […] (GE Healthcare) was used to analyze binding to MTA and MTA analogs (adenosine, SAH) to verify whether humanized MTA0303 and humanized MTA0330 specifically bind to MTA.
(§2) The antibody of interest was captured on Sensor Chip Protein A (GE healthcare) with protein A pre-immobilized, or on an immobilized surface prepared by binding onto Streptavidin-immobilized Sensor chip SA (GE Healthcare) the Capture Select Biotin Anti-IgG-Fc (Hu) (Thermo fisher scientific), which is a biotinylated anti-human IgG CH1 molecule, and interacted with MTA (Sigma-Aldrich), or adenosine (Wako), or S-(5′-adenosyl)-L-homocysteine, (SAH) (Sigma-Aldrich). 20 mM ACES-NaOH, 150 mM NaCl, 0.05% Tween20, 0.05% DMSO was used as the running buffer. MTA or adenosine or SAH was allowed to interact at a flow rate of 30 μL/min for 120 seconds and then dissociated in the running buffer. The interaction was measured at 25° C. and the same buffer as the running buffer was used to dilute MTA, or adenosine, or SAH.
(§3) The dissociation constant KD (M) was calculated based on the binding rate constant ka (1/Ms) and the dissociation rate constant kd (1/s), which are kinetic parameters calculated from the sensorgrams obtained by the measurement. Alternatively, the dissociation constant KD (M) was calculated using steady state analysis. Biacore 1200 Evaluation Software (GE Healthcare) was used to calculate each parameter.

[2] = Surface plasmon resonance: humanized MTA0303 and humanized MTA0330, binding to SAH; conditions: humanized antibodies; 25° C.; read-out: Affinity KD, SAH
Description: as §1, §2, §3

[3] = Surface plasmon resonance: humanized MTA0303 and humanized MTA0330, binding to MTA; conditions: humanized antibodies; 25° C.; read-out: Affinity KD, MTA
Description: as §1, §2, §3

[4] = Biacore T200: rabbit B cell cloning antibodies, binding to MTA; conditions: Biacore T200, 25° C.; read-out: Affinity KD, MTA
Experimental: (§4) The antibody of interest was captured on Sensor Chip Protein A (GE healthcare) with protein A pre-immobilized, or on an immobilized surface prepared by binding onto Streptavidin-immobilized Sensor chip SA (GE Healthcare) the Capture Select Biotin Anti-IgG-Fc (Hu) (Thermo fisher scientific), which is a biotinylated anti-human IgG CH1 molecule, and interacted with MTA (Sigma-Aldrich) or MTA analogs. As MTA analogs, adenosine (Wako) (measured concentration in tumor tissue: 182 nM) and S-(5′-adenosyl)-L-homocysteine, (SAH) (Sigma-Aldrich) (measured concentration in tumor tissue: 30 nM) were selected based on the structural similarity to MTA and the concentration in tumor tissue of tumor-bearing mice of an MTAP-deficient cell line. 20 mM ACES-NaOH, 150 mM NaCl, 0.05% Tween20, 0.05% DMSO was used as the running buffer. MTA or adenosine or SAH was allowed to interact at a flow rate of 30 μL/min for 120 seconds and then dissociated in the running buffer. The interaction was measured at 25° C. and the same buffer as the running buffer was used to dilute MTA and its analogs.
(§5) The dissociation constant […]) (M) was calculated based on the binding rate constant ka (1/Ms) and the dissociation rate constant kd (1/s), which are kinetic parameters calculated from the sensorgrams obtained by the measurement. Alternatively, the dissociation constant KD (M) was calculated using steady state analysis. […]

[5] = Biacore T200: rabbit B cell cloning antibodies, binding to adenosine; conditions: Biacore T200, 25° C.; read-out: Affinity KD, Adenosine
Experimental: as §4, §5

[6] = Biacore T200: rabbit B cell cloning antibodies, binding to SAH; conditions: Biacore T200, 25° C.; read-out: Affinity KD, SAH
Experimental: as §4, §5

hIL-6R [7] = target: T1, hIL-6R (Homo sapiens, UniProt P08887); assay: Surface plasmon resonance (Biacore T200): C03H-BH076N17/C03L-KT0 binding to hIL-6R under MTA or adenosine
T1 sequence (P08887 20-357): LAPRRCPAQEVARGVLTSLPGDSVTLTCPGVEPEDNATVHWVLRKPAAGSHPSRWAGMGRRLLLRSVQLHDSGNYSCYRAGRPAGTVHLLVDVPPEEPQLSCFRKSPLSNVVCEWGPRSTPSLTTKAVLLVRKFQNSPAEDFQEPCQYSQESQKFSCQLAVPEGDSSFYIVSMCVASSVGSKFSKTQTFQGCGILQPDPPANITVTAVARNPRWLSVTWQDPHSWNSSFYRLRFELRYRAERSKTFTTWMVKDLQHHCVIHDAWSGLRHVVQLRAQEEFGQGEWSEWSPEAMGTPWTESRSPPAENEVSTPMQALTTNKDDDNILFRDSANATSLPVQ
Experimental: Using Biacore T200 (GE Healthcare), the effects of MTA and adenosine on the antigen-antibody reaction between C03H-BH076N17/C03L-KT0 and hIL-6R were evaluated. TBS, 0.02% (w/v) Tween20, pH 7.4 was used as the running buffer. ProA/G (Pierce) was immobilized onto Sensor Chip CM5 (GE Healthcare) by amine coupling, and after the antibody was immobilized on it, various antigens were allowed to interact as analytes, to observe changes in the antigen-antibody binding amount. The running buffer and a buffer in which either MTA or adenosine was added to the running buffer were used for antigen dilution, which were prepared in a series of stepwise concentrations. Biacore T200 Evaluation Software (GE Healthcare) was used to calculate the parameters.

hIL-6R [8] = target: T1, hIL-6R; assay: Biacore T200: hIL-6R binding amount at different MTA concentrations; conditions: MTA 0.1, 1, 10, 100 μM, 25° C.
Experimental: For the MTA-dependently binding anti-hIL-6R antibody cloned in Example (4-5) (6RS2T007H-F760mnN17/6RS2T007L-KT0), the change in the amount of antigen binding dependent on MTA concentration was assessed using Biacore T200 (GE Healthcare). The measurement was done at 25° C., using 20 mM ACES added with MTA at final concentrations of 0.1, 1, 10, and 100 μM, 150 mM NaCl, 0.05% (w/v) Tween20, pH 7.4 as the running buffer Series S Sensor Chip CM4 was used as the sensor chip, ProA/G was immobilized by amine coupling with the antibody mobilised on the top of that, after which hIL-6R was allowed to interact as an analyte to measure the change in binding amount between antigen-antibody. The running buffer was used to dilute the antigen.

[9] = Biacore T200: binding of humanized SMB0002 to adenosine; conditions: 37° C.; read-out: Affinity KD, Adenosine
Experimental: (§6) CaptureSelect™ Biotin Anti-IgG-CH1 Conjugate (Thermo fisher scientific), which is a biotinylated anti-human IgG CH1 molecule, was bound to Sensor Chip SA (GE Healthcare) onto which streptavidin was immobilized in advance, then humanized SMB0002 was allowed to be captured, and MTA (Sigma-Aldrich) or adenosine (Wako) was allowed to interact with humanized SMB0002. 50 mM Tris-HCl, 150 mM NaCl (Takara, T903), 0.02% (w/v) Tween20, 5% DMSO was used as the running buffer. MTA or adenosine was allowed to interact with humanized SMB0002 for 42 seconds at a flow rate of 100 μL/min and then dissociated from the antibody in the running buffer. The interaction was measured at 37° C., and the same buffer as the running buffer was used to dilute MTA or adenosine.
as §3, with “T200” for “1200”

[10] = Biacore T200: binding of humanized SMB0002 to MTA; conditions: 37° C.; read-out: Affinity KD, MTA
Experimental: as §6
as §3, with “T200” for “1200”

B1: HumanizedMTA0303 (antibody, V domains shown)
VH: QVQLVESGGGLVKPGGSLRLSCAASGFTFSSAYWMCWVRQAPGKGLEWVACIFASAIYAGSGGSTYYASWAKGRLTISKDTSKNQVVLTMTNMDPVDTATYYCATGYGSSGGGFDELWGQGTLVTVSS
VL: EIVLTQSPATLSLSPGERATLSCQSSESVYANRLSWYQQKPGQPPKLLIYSASTLPSGIPARFSGSGSGTDFTLTISRLEPEDFAVYYCAGLYSGNIPAFGQGTKVEIK
- Kd [1]: 41.4 µM
- Kd [2]: 211 µM
- Kd [3]: 0.0108 µM

B2: HumanizedMTA0330 (antibody, V domains shown)
VH: QVQLVESGGGLVQPGGSLRLSCSASGFTFSSSYWMCWVRQAPGKGLEWVGCIYSGDGSTYYASWVNGRLTISKDTSKSQVVLTMTNMDPVDTATYYCARENIFGSGALNLWGQGTLVTVSS
VL: DIQVTQSPSSLSASVGDRVTITCHSSKSVYSNNRLAWYQQKPGQPPKLLIYQASTLASGVPSRFSGSGSGTEFTLTISSLQPDDFATYYCQGTYYSSGFYFAFGQGTKVEIK
- Kd [1]: 44.8 µM
- Kd [2]: 84.7 µM
- Kd [3]: 0.00888 µM

B3: MTA0330: anti-MTA antibody from rabbit B cell cloning; H-chain variable region SEQ ID NO: 48, L-chain SEQ ID NO: 49 (antibody, V domains shown)
VH: QEQLVESGGDLVTPGASLTLTCKASGFSFSSSYWMCWVRQAPGKGLEWIACIYSGDGSTYYASWVNGRFTISKTSSTTVTLQMTSLTAADTATYFCARENIFGSGALNLWGPGTLVTVSS
VL: QAVVTQTPSPVSAAVGGTVTISCHSSKSVYSNNRLAWYQQKPGQPPKLLIYQASTLASGVASRFSGSGSGTQFTLTISGVQCDDAATYYCQGTYYSSGFYFAFGGGTEVVVK
- Kd [4]: 0.0144 µM
- Kd [5]: 63.5 µM
- Kd [6]: 187 µM

B4: C03H-BH076N17/C03L-KT0: antibody binding hIL-6R MTA-dependently; heavy chain variable region SEQ ID NO: 54, light chain variable region SEQ ID NO: 55 (antibody, V domains shown)
VH: QVQLVQSGAEVKKPGSSVKVSCKASGGTFSSYAISWVRQAPGQGLEWMGGIIPIFGTANYAQKFQGRVTITADESTSTAYMELSSLRSEDTAVYYCARFHVMSSFEIWGQGTLVTVSS
VL: DIQMTQSPSSLSASVGDRVTITCRASQSISSYLNWYQQKPGKAPKLLIYAASSLQSGVPSRFSGSGSGTDFTLTISSLQPEDFATYYCLQFNNDPLTFGGGTKVEIK
- amount of binding to hIL-6R (hIL-6R [7]; different concentrations of MTA): showed stronger binding activity to hIL-6R as MTA concentration increased
- amount of binding to hIL-6R (hIL-6R [7]; different concentrations of adenosine): no binding to hIL-6R was observed at any concentration

B5: MTA0303: anti-MTA antibody from rabbit B cell cloning; H-chain variable region SEQ ID NO: 46, L-chain SEQ ID NO: 47 (antibody, V domains shown)
VH: QSLEESGGDLVKPGASLTLTCTASGFSFSSAYWMCWVRQAPGKGLEWTACIFASAIYAGSGGSTYYASWAKGRFTISKTSSTTVTLQMTSLTAADTATYFCATGYGSSGGGFDELWGPGTLVTVSS
VL: AQVLTQTASSVSAAVGGTVTISCQSSESVYANRLSWYQQKPGQPPKLLIYSASTLPSGVPSRFKGSGSGTQFTLTISDLECDDVGTYYCAGLYSGNIPAFGGGTEVVVK
- Kd [4]: 0.00246 µM
- Kd [5]: 11.4 µM
- Kd [6]: 119 µM

B6: 6RS2T007H-F760mnN17/6RS2T007L-KT0: MTA-dependent anti-hIL-6R antibody; H-chain variable region SEQ ID NO: 57, L-chain variable region SEQ ID NO: 58 (antibody, V domains shown)
VH: QVQLVQSGAEVKKPGASVKVSCKVSNIVLMQHTYGWVRQPPGKGLEWIGIIGGDGHAWYPRWVKGRFTISKDNSKNQVVLTMTNMDPVDTATYYCARGGKDGFTNAWDPWGQGTLVTVSS
VL: DIQLTQSPSSLSASVGDRVTITCQSSQSVFNNNGLSWYQQKPGQPPKLLIYDASTLASGVPSRFSGSGSGTDFTLTINSLEAEDAATYYCHGSQATQIWWDNAFGGGTEVVVK
- amount of antigen (hIL-6R) binding (hIL-6R [8]): changes stepwise according to the MTA concentration

B7: Humanized SMB0002: adenosine-binding antibody, library template; heavy chain variable region SEQ ID NO: 31, light chain variable region SEQ ID NO: 32 (antibody, V domains shown)
VH: QVQLVQSGAEVKKPGASVKVSCKVSGIDLTNYAMGWVRQPPGKGLEWIGIIGADSSTWYPSWVKGRFTISKDTSKNQVVLTMTNMDPVDTATYYCARGRFVGYTNAFDPWGQGTLVTVSS
VL: B6 VL with F30W, G34Y, Q94Y, T96N, Q97S, I98G, W100Y
- Kd [9]: 0.064 µM
- Kd [10]: 3.8 µM
